Data from publication PMC5737516.
Numbering of substitutions follows the chain as printed. Where two headings read alike, the source gives them in different places.

T1: M1BP (UniProt Q9VHM3 1-418)
T1 sequence: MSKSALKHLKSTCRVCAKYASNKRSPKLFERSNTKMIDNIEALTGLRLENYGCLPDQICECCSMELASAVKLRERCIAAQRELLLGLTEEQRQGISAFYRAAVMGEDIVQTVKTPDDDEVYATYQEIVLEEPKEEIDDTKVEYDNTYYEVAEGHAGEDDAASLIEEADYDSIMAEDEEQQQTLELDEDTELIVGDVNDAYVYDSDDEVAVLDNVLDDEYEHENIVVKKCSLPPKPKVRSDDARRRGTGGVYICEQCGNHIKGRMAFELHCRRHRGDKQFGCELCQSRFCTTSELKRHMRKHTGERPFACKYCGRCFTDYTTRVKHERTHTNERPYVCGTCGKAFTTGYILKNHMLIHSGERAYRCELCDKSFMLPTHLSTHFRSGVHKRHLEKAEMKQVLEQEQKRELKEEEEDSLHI

T2: M1BP;TRF2 (Drosophila melanogaster?;Drosophila …, UniProt Q9VHM3;Q9XZD9 1-418;1-632, |)
T2 sequence 1: T1 sequence
T2 sequence 2: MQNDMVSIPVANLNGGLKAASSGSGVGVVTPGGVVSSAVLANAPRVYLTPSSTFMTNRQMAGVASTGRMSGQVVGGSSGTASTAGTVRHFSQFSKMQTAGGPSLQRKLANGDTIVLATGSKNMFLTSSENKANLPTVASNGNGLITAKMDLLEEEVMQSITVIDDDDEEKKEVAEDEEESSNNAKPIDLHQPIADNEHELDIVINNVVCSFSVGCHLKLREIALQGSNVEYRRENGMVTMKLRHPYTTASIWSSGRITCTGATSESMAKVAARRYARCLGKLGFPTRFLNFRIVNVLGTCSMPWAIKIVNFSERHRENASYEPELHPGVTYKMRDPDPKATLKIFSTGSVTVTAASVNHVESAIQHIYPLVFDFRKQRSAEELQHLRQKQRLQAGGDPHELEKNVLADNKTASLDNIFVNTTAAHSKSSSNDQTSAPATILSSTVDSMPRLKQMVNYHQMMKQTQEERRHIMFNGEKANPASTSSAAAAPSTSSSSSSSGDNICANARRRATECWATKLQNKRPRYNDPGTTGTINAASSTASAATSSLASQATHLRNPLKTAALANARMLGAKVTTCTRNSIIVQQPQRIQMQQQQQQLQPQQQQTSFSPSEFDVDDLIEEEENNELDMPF

B1: RpL30 wtMotif1 (-52 to +8) (dsDNA)
DNA 1: CCCGTCGGTCACACCAACACAAACGTGGTACCCATTTCCGCCTGTTCTTCCTCTTTCTTT
DNA 2: AAAGAAAGAGGAAGAACAGGCGGAAATGGGTACCACGTTTGTGTTGGTGTGACCGACGGG
B2: RpL30 mutMotif1 (-52 to +8) (dsDNA)
DNA 1: B1 DNA 1 with G7C, C12G, C14G
DNA 2: B1 DNA 2 with G47C, G49C, C54G
B3: RpLP1 wtMotif1 (-36 to +14) (dsDNA)
DNA 1: TTCGTCATCGGCGCGGTCACACTGCATATCAACTGCTCTTTCCGGTTTAG
DNA 2: CTAAACCGGAAAGAGCAGTTGATATGCAGTGTGACCGCGCCGATGACGAA
B4: RpLP1 mutMotif1 (-36 to +14) (dsDNA)
DNA 1: B3 DNA 1 with G15C, C20G, C22G
DNA 2: B3 DNA 2 with G29C, G31C, C36G

Experiments:
Assay in all cases: pull-down
M1BP = molecular target: T1, M1BP
M1BP;TRF2 [1] = molecular target: T2, M1BP;TRF2
M1BP;TRF2 [2] = molecular target: T2, M1BP;TRF2; remark: listed apart in the source

Binder	binding result (M1BP)	binding result (M1BP;TRF2 [1])	binding result (M1BP;TRF2 [2])
B1	binds	binds	
B2	no binding		no binding
B3	binds	binds	
B4	no binding		no binding
